Data: publication PMC2756588

T1: Lsb4, P32793
T1 sequence (P32793 402-468, looked up): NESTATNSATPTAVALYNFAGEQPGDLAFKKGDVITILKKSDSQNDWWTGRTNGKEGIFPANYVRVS

T2: Abp1, P15891
T2 sequence (P15891 535-592, looked up): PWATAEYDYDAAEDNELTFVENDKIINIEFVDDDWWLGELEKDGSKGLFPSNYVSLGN

T3: Boi1, P38041
T3 sequence (P38041 1-86, looked up): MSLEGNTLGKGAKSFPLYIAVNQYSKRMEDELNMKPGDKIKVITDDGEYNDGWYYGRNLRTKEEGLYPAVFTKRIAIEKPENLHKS

T4: Myo5, Q04439
T4 sequence (Q04439 1072-1160, looked up): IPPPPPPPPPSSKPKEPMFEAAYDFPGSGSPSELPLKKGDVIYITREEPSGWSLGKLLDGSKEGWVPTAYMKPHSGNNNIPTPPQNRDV

T5: Nbp2, Q12163
T5 sequence (Q12163 103-180, looked up): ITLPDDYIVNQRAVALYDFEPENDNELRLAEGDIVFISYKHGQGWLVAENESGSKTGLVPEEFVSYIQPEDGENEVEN

T6: Bzz1-2, P38822
T6 sequence (P38822 568-633, looked up): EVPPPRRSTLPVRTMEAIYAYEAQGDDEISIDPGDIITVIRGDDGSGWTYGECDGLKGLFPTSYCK

T7: Hse1, P38753
T7 sequence (P38753 208-285, looked up): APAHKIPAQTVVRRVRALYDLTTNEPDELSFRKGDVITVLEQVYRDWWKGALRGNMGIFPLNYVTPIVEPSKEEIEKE

T8: Lsb3, P43603
T8 sequence (P43603 385-451, looked up): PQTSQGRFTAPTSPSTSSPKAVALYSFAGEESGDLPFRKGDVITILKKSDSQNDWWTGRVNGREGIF

T9: Pex13, P80667
T9 sequence (P80667 295-386, looked up): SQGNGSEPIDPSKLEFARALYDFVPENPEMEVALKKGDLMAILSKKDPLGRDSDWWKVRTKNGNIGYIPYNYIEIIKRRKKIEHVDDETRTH

T10: Pin3, Q06449
T10 sequence (Q06449 53-122, looked up): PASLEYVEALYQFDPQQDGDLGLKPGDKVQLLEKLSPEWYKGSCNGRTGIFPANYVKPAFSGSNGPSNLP

T11: Sla1-3, P32790
T11 sequence (P32790 344-424, looked up): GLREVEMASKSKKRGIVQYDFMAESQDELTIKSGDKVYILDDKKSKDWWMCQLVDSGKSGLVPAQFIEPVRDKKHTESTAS

T12: Bzz1-1, P38822
T12 sequence (P38822 478-572, looked up): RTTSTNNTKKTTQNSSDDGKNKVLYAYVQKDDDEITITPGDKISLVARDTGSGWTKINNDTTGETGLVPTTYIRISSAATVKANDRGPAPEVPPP

T13: Hof1, Q05080
T13 sequence (Q05080 590-669, looked up): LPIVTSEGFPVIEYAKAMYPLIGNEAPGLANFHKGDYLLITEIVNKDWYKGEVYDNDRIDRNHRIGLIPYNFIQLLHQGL

T14: Bud14, P27637
T14 sequence (P27637 247-328, looked up): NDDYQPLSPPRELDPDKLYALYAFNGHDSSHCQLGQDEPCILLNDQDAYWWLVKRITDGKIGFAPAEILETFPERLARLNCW

T15: Bbc1, P47068
T15 sequence (P47068 1-78, looked up): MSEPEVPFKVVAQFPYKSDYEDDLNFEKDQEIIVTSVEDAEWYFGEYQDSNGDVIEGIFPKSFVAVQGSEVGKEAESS

T16: Sla1-2, P32790
T16 sequence (P32790 60-140, looked up): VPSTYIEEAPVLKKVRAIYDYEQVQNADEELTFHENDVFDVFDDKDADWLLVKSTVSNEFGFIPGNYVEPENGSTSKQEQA

T17: Lsb1, P53281
T17 sequence (P53281 45-122, looked up): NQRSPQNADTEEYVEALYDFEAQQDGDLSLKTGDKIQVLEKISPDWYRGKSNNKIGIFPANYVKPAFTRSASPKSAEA

T18: Fus1, P11710
T18 sequence (P11710 432-512, looked up): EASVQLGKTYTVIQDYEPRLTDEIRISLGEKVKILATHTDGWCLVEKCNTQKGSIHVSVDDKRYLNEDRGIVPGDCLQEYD

T19: Cdc25, P04821
T19 sequence (P04821 50-136, looked up): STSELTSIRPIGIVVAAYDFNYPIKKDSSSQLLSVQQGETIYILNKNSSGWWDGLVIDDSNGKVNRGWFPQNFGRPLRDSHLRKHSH

T20: Boi2, P39969
T20 sequence (P39969 32-116, looked up): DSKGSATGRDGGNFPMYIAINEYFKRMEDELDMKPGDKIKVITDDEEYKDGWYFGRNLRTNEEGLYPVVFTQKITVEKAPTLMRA

T21: Cyk3, Q07533
T21 sequence (Q07533 1-83, looked up): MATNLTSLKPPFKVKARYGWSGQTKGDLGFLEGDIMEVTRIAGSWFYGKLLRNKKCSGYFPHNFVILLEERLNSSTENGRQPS


How the values were obtained:
Experiment in all cases: SPOT array
Myo3, P36006 = settings: median of control spots 468
GST = settings: median of control spots 978
Lsb4, P32793 = biological target: T1, Lsb4, P32793; settings: median of control spots 397
Bem1-2, P29366 = settings: median of control spots 4347
Chain of Bem1-2, P29366 (P29366 139-227): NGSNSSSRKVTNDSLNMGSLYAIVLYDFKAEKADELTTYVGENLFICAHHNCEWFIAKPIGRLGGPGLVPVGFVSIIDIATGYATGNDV

Abp1, P15891 = biological target: T2, Abp1, P15891; settings: median of control spots 935
Boi1, P38041 = biological target: T3, Boi1, P38041; settings: median of control spots 1162
Myo5, Q04439 = biological target: T4, Myo5, Q04439; settings: median of control spots 471
Nbp2, Q12163 = biological target: T5, Nbp2, Q12163; settings: median of control spots 357
Bzz1-2, P38822 = biological target: T6, Bzz1-2, P38822; settings: median of control spots 4538
Hse1, P38753 = biological target: T7, Hse1, P38753; settings: median of control spots 1727
Lsb3, P43603 = biological target: T8, Lsb3, P43603; settings: median of control spots 406
Pex13, P80667 = biological target: T9, Pex13, P80667; settings: median of control spots 1341
Pin3, Q06449 = biological target: T10, Pin3, Q06449; settings: median of control spots 2171
Sla1-3, P32790 = biological target: T11, Sla1-3, P32790; settings: median of control spots 5475
Bzz1-1, P38822 = biological target: T12, Bzz1-1, P38822; settings: median of control spots 4446
Hof1, Q05080 = biological target: T13, Hof1, Q05080; settings: median of control spots 4086
Bud14, P27637 = biological target: T14, Bud14, P27637; settings: median of control spots 956
Bbc1, P47068 = biological target: T15, Bbc1, P47068; settings: median of control spots 796
Sla1-2, P32790 = biological target: T16, Sla1-2, P32790; settings: median of control spots 712
Rvs167, P39743 = settings: median of control spots 2707
Chain of Rvs167, P39743 (P39743 419-482): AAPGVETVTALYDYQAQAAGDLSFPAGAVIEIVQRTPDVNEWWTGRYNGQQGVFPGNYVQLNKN

Lsb1, P53281 = biological target: T17, Lsb1, P53281; settings: median of control spots 388
Fus1, P11710 = biological target: T18, Fus1, P11710; settings: median of control spots 1200
Sho1, P40073 = settings: median of control spots 1148
Chain of Sho1, P40073 (P40073 287-367): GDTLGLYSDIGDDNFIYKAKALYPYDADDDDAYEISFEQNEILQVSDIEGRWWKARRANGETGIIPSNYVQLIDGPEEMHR

Cdc25, P04821 = biological target: T19, Cdc25, P04821; settings: median of control spots 969
Boi2, P39969 = biological target: T20, Boi2, P39969; settings: median of control spots 1161
Cyk3, Q07533 = biological target: T21, Cyk3, Q07533; settings: median of control spots 1451
Bem1-1, P29366 = settings: median of control spots 4282
Chain of Bem1-1, P29366 (P29366 55-141): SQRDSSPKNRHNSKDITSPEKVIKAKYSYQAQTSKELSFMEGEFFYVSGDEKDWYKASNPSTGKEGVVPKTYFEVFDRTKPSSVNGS

Binder | SPOT intensity (Myo3, P36006) | SPOT intensity (GST) | SPOT intensity (Lsb4, P32793) | SPOT intensity (Bem1-2, P29366) | SPOT intensity (Abp1, P15891) | SPOT intensity (Boi1, P38041) | SPOT intensity (Myo5, Q04439) | SPOT intensity (Nbp2, Q12163) | SPOT intensity (Bzz1-2, P38822) | SPOT intensity (Hse1, P38753) | SPOT intensity (Lsb3, P43603) | SPOT intensity (Pex13, P80667) | SPOT intensity (Pin3, Q06449) | SPOT intensity (Sla1-3, P32790) | SPOT intensity (Bzz1-1, P38822) | SPOT intensity (Hof1, Q05080) | SPOT intensity (Bud14, P27637) | SPOT intensity (Bbc1, P47068) | SPOT intensity (Sla1-2, P32790) | SPOT intensity (Rvs167, P39743) | further results
LLLLFVPDSPYDPAI | 0 | 1 | 0 | 0 | 0 | 1 | 0 | 1 | 0 | 0 | 0 | 0 | 0 | 2 | 0 | 0 | 3 | 0 | 0 | 0 | SPOT intensity (Lsb1, P53281): 0; SPOT intensity (Fus1, P11710): 1; SPOT intensity (Sho1, P40073): 0; SPOT intensity (Cdc25, P04821): 0; SPOT intensity (Boi2, P39969): 0; SPOT intensity (Cyk3, Q07533): 0; SPOT intensity (Bem1-1, P29366): 0
LTRRFPFLFPFDTRM | 4 | 0 | 4 | 61 | 18 | 6 | 0 | 16 | 3 | 126 | 0 | 16 | 18 | 129 | 3 | 116 | 21 | 69 | 1 | 0 | SPOT intensity (Lsb1, P53281): 0; SPOT intensity (Fus1, P11710): 100; SPOT intensity (Sho1, P40073): 57; SPOT intensity (Cdc25, P04821): 21; SPOT intensity (Boi2, P39969): 0; SPOT intensity (Cyk3, Q07533): 3; SPOT intensity (Bem1-1, P29366): 1
GERSRPLVISILSSA | 5 | 0 | 4 | 0 | 16 | 2 | 0 | 2 | 1 | 0 | 0 | 39 | 26 | 0 | 3 | 0 | 14 | 0 | 1 | 0 | SPOT intensity (Lsb1, P53281): 0; SPOT intensity (Fus1, P11710): 3; SPOT intensity (Sho1, P40073): 38; SPOT intensity (Cdc25, P04821): 16; SPOT intensity (Boi2, P39969): 0; SPOT intensity (Cyk3, Q07533): 0; SPOT intensity (Bem1-1, P29366): 0
HGKRRAPLLLAKLDV | 5 | 1 | 4 | 0 | 79 | 0 | 0 | 1 | 1 | 0 | 0 | 5 | 9 | 1 | 0 | 0 | 14 | 17 | 0 | 0 | SPOT intensity (Lsb1, P53281): 0; SPOT intensity (Fus1, P11710): 0; SPOT intensity (Sho1, P40073): 85; SPOT intensity (Cdc25, P04821): 7; SPOT intensity (Boi2, P39969): 0; SPOT intensity (Cyk3, Q07533): 0; SPOT intensity (Bem1-1, P29366): 0
